Measured values from PMC4356373, “The structure of the hexameric atrazine chlorohydrolase AtzA” (Acta Crystallographica Section D: Biological Crystallography, 2015).

Tests used:
[1] = biological target: the molecule itself; experiment: crystal structure; two crystal forms: P22(1)2(1) at 2.8 Å (two hexamers in the asymmetric unit) and P2(1)2(1)2(1) at 2.2 Å (one hexamer); PEG 8000 or PEG 10 000, 50 mM HEPES pH 7.1-7.3, 281 K
[2] = biological target: the molecule itself; experiment: SEC; purified variant, size by SEC; data not shown

Row | Protein | stoichiometry N [1] | stoichiometry N [2]
1 | Atrazine chlorohydrolase (AtzA), wild type (enzyme, Pseudomonas sp. strain ADP, Atrazine chlorohydrolase AtzA of Pseudomonas sp. strain ADP, wild-type atzA gene in the pCS150 expression vector; about 470 amino acids; one Fe2+ per monomer; hexamer is a trimer of dimers; also called wild-type protein; source: E. coli BL21 λDE3, purified (Ni-NTA, SEC, thrombin cleavage of the His tag, SEC)) MQTLSIQHGTLVTMDQYRRVLGDSWVHVQDGRIVALGVHAESVPPPADRVIDARGKVVLPGFINAHTHVNQILLRGGPSHGRQFYDWLFNVVYPGQKAMRPEDVAVAVRLYCAEAVRSGITTINENADSAIYPGNIEAAMAVYGEVGVRVVYARMFFDRMDGRIQGYVDALKARSPQVELCSIMEETAVAKDRITALSDQYHGTAGGRISVWPAPATTTAVTVEGMRWAQAFARDRAVMWTLHMAESDHDERIHGMSPAEYMECYGLLDERLQVAHCVYFDRKDVRLLHRHNVKVASQVVSNAYLGSGVAPVPEMVERGMAVGIGTDNGNSNDSVNMIGDMKFMAHIHRAVHRDADVLTPEKILEMATIDGARSLGMDHEIGSIETGKRADLILLDLRHPQTTPHHHLAATIVFQAYGNEVDTVLIDGNVVMENRRLSFLPPERELAFLEEAQSRATAILQRANMVANPAWRSL | 6 | –
2 | AtzA Ala170Thr, Met256Ile, Pro258Thr, Tyr261Ser variant (enzyme, Pseudomonas sp. strain ADP, synthetic gene (Life Technologies) subcloned into pCS150; The PDB entries hold the wild-type parent of the same vector, not this variant; also called AtzA variant; the variant; source: E. coli BL21 λDE3, purified (Ni-NTA, SEC, thrombin cleavage of the His tag, SEC)) MQTLSIQHGTLVTMDQYRRVLGDSWVHVQDGRIVALGVHAESVPPPADRVIDARGKVVLPGFINAHTHVNQILLRGGPSHGRQFYDWLFNVVYPGQKAMRPEDVAVAVRLYCAEAVRSGITTINENADSAIYPGNIEAAMAVYGEVGVRVVYARMFFDRMDGRIQGYVDTLKARSPQVELCSIMEETAVAKDRITALSDQYHGTAGGRISVWPAPATTTAVTVEGMRWAQAFARDRAVMWTLHMAESDHDERIHGISTAESMECYGLLDERLQVAHCVYFDRKDVRLLHRHNVKVASQVVSNAYLGSGVAPVPEMVERGMAVGIGTDNGNSNDSVNMIGDMKFMAHIHRAVHRDADVLTPEKILEMATIDGARSLGMDHEIGSIETGKRADLILLDLRHPQTTPHHHLAATIVFQAYGNEVDTVLIDGNVVMENRRLSFLPPERELAFLEEAQSRATAILQRANMVANPAWRSL | – | 2
